Measurements as given in article PMC4063126.

Target: DENV1 prM protein with H98A (dengue virus 1 (DENV1), FGA/NA d1d strain)
Assay: co-IP

In the case of “DENV1 E protein with H244A (natural protein)”, the co-IP at pH 6.0 as percent of that at pH 7.0 is reported as 33%.
